This note sets out measurements from patent US20090208938A1 (CENTRE NATIONAL DE LA RECHERCHE SCIENTIFIQUE, published 2009).

In the experiment the target is T1, MCM2-7 protein complex (Xenopus egg extracts) (Xenopus, UniProt P55861 1-886; P49739 1-807; P30664 1-863; P55862 1-735; Q5FWY4 1-821; Q91876 …).
T1 construct: Endogenous complex of the six proteins MCM2 to MCM7; also called MCM2-7 proteins; MCM2-7 complex
The experiment is described as follows: co-immunoprecipitation with MCM3 antibody from S phase egg extracts, western blot with MCM8 antibody.

B1: Xenopus MCM8 protein (enzyme)
chain: MSQGWRGGSGGWRGGGGGGGNPYAGAWRGRPWRGRGQGGTWSRNNGRDPVCFAPPKPQLTQTTLDKYIPYKGWKLYFSEAYSDNSPFLEKVRAFEKFFKKQIELYDKDEIERKGSILVDYKELLQDEDLSASIPLSSELKDMPEKVLECMGLAIHQVLTKDLETHAADLQQQEGLRTEEAPIVNVPFIHARVFNYDTLTSLKNLRASLYGKYVALRGTVVRVGNIKPLCTKMAFSCNMCGDIQCFPLPDGKYTVPTKCPVPECRGRSFTANRSSPLTVTVDWQTIKVQELMSDDQREAGRIPRTVECELIQDLVDSCVPGDMITVTGIVKVSNTRDGGFKNKNNKCMFLLYIEANSVSNSKGQKGKSTEDSGNHGASMDFSLKDLYAIQEIQSQENLFQLIVNSLCPTIYGHELVKAGLSLALFGGCQKYADDKNRIPIRGDPHILVVGDPGLGKSQMLQAVCNVAPRGVYVCGNTTTTSGLTVTLSRDTTTGDFGLEAGALVLGDQGICGIDEFDKMGNQHQALLEAMEQQSISLAKAGIVCSLPARTSIIAAANPVGGHYNKGKTVSENLKMGSALLSRFDLVFILVDTPNEDHDHLLSEHVMAMRSGAKEIQSVDITRINTQNSNTSILEVPSERPLGERLKLRTGEHFDALPHQLLRKFVGYARQYVHPSLSPDAAQILQDFYLELRKQNQGIDSTPITTRQLESLIRLTEARARLELREKATKEDAEEVVQIMKYSLLGTFSDEFGKLDFQRSQHGSGMSNRSKAKKFVSALNRVAEQTYNNLFEFQQLRQIARELQIQVIDFEAFIGSLNDQGYLLKKGPRVFQLQTM
notes: Full-length protein: translated in vitro in rabbit reticulocytes, or the endogenous protein of Xenopus egg extracts; also called 90 kDa polypeptide
Regarding B1, the binding result is listed as “no binding”.
